Data from US20170233494.

Biological target: mouse MBL (mannose-binding lectin of mouse serum)

B1: recombinant mouse MASP-2 (rMASP-2) (protein)
chain: SKWPEPVFGRLVSPGFPEKYADHQDRSWTLTAPPGYRLRLYFTHFDLELSYRCEYDFVKLSSGTKVLATLCGQESTDTEQAPGNDTFYSLGPSLKVTFHSDYSNEKPFTGFEAFYAAEDVDECRVSLGDSVPCDHYCHNYLGGYYCSCRAGYILHQNKHTCSALCSGQVFTGRSGYLSSPEYPQPYPKLSSCTYSIRLEDGFSVILDFVESFDVETHPEAQCPYDSLKIQTDKGEHGPFCGKTLPPRIETDSHKVTITFATDESGNHTGWKIHYTSTARPCPDPTAPPNGSISPVQATYVLKDRFSVFCKTGFELLQGSVPLKSFTAVCQKDGSWDRPMPECSIIDCGPPDDLPNGHVDYITGPQVTTYKAVIQYSCEETFYTMSSNGKYVCEADGFWTSSKGEKLPPVCEPVCGLSTHTIGGRIVGGQPAKPGDFPWQVLLLGQTTAAAGALIHDNWVLTAAHAVYEKRMAASSLNIRMGILKRLSPHYTQAWPEEIFIHEGYTHGAGFDNDIALIKLKNKVTINGSIMPVCLPRKEAASLMRTDFTGTVAGWGLTQKGLLARNLMFVDIPIADHQKCTTVYEKLYPGVRVSANMLCAGLETGGKDSCRGDSGGALVFLDNETQRWFVGGIVSWGSINCGAAGQYGVYTKVINYIPWNENIISNF
C4 deposition on mannan-coated wells (sMAP-/- mouse serum): the amount of C4 was restored by up to 46% of that of wild-type serum in a dose-dependent manner and reached a plateau
